# Assay results: patent US20180155451A1 (published 2018)
# T1: FcγRIIb extracellular domain with C-terminal His tag (human, UniProt P31994 43-217)
# T1 construct: extracellular domain; Soluble receptor expressed in FreeStyle293 cells and used as analyte in Biacore; also called FcgRIIb; 2b; not shown: His tag at the C terminus
# T1 sequence (looked up): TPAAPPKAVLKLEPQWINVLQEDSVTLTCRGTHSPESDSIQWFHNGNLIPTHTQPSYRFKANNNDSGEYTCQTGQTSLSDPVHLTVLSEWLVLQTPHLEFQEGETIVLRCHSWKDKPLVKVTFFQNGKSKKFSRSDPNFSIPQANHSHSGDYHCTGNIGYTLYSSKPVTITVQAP
# T2: FcγRIIa H (human, UniProt P12318 34-217)
# T2 construct: extracellular domain; Soluble His-tagged extracellular domain expressed in FreeStyle293 cells; also called FcγRIIa type H; FcgRIIa H; not shown: His tag attached to the C terminus
# T2 sequence (looked up): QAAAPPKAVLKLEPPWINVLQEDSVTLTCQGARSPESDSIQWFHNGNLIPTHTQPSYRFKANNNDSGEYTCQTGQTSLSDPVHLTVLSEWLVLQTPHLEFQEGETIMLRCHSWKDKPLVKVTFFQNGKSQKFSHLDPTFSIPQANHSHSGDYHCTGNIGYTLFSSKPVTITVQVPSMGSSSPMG
# T3: FcγRIIb (human, UniProt P31994 43-217)
# T3 construct: extracellular domain; Soluble His-tagged extracellular domain expressed in FreeStyle293 cells; also called FcgRIIb; 2b; not shown: His tag attached to the C terminus
# T3 sequence (looked up): T1 sequence (looked up)
# B1: heterodimerized antibody GpH7-A5/GpH7-B3 variant Y296_01G/GpL16-k0 (antibody, human IgG1, kappa)
# heavy 1: not shown
# heavy 2: not shown
# light: DIVMTQSPLSLPVTPGEPASISCQASESLVHSNRNTYLHWYLQKPGQSPQLLIYKVSNRFSGVPDRFSGSGSGTDFTLKISRVEAEDVGVYYCSQNTHVPPTFGQGTKVEIERTVAAPSVFIFPPSDEQLKSGTASVVCLLNNFYPREAKVQWKVDNALQSGNSQESVTEQDSKDSTYSLSSTLTLSKADYEKHKVYACEVTHQGLSSPVTKSFNRGEC
# notes: Substitution in only one H chain (GpH7-B3 side); also called He Ab
# B2: GpH7-A5/GpH7-B3 variant N325_04F/GpL16-k0 (antibody, human IgG1, kappa)
# heavy 1: not shown
# heavy 2: not shown
# light: B1 light
# notes: Heterodimerized anti-glypican-3 IgG1; mutation in the GpH7-B3 H chain only; also called He Ab
# B3: heterodimerized antibody GpH7-A5/GpH7-B3 variant Y296_02A/GpL16-k0 (antibody, human IgG1, kappa)
# heavy 1: not shown
# heavy 2: not shown
# light: B1 light
# notes: as for B1
# B4: GpH7-A5/GpH7-B3 variant K326_14T/GpL16-k0 (antibody, human IgG1, kappa)
# heavy 1: not shown
# heavy 2: not shown
# light: B1 light
# notes: as for B2
# B5: GpH7-A5/GpH7-B3 variant K326_20W/GpL16-k0 (antibody, human IgG1, kappa)
# heavy 1: not shown
# heavy 2: not shown
# light: B1 light
# notes: as for B2
# B6: heterodimerized antibody GpH7-A5/GpH7-B3 variant Q295_18N/GpL16-k0 (antibody, human IgG1, kappa)
# heavy 1: not shown
# heavy 2: not shown
# light: B1 light
# notes: as for B1
# B7: heterodimerized antibody GpH7-A5/GpH7-B3 variant S298_02A/GpL16-k0 (antibody, human IgG1, kappa)
# heavy 1: not shown
# heavy 2: not shown
# light: B1 light
# notes: as for B1
# B8: heterodimerized antibody GpH7-A5/GpH7-B3 variant Y296_03V/GpL16-k0 (antibody, human IgG1, kappa)
# heavy 1: not shown
# heavy 2: not shown
# light: B1 light
# notes: as for B1
# B9: GpH7-A5/GpH7-B3 variant K326_10E/GpL16-k0 (antibody, human IgG1, kappa)
# heavy 1: not shown
# heavy 2: not shown
# light: B1 light
# notes: as for B2
# B10: GpH7-A5/GpH7-B3 variant N325_10E/GpL16-k0 (antibody, human IgG1, kappa)
# heavy 1: not shown
# heavy 2: not shown
# light: B1 light
# notes: as for B2
# B11: GpH7-A5/GpH7-B3 variant K326_09D/GpL16-k0 (antibody, human IgG1, kappa)
# heavy 1: not shown
# heavy 2: not shown
# light: B1 light
# notes: as for B2
# B12: GpH7-A5/GpH7-B3 variant N325_07I/GpL16-k0 (antibody, human IgG1, kappa)
# heavy 1: not shown
# heavy 2: not shown
# light: B1 light
# notes: as for B2
# B13: GpH7-A5/GpH7-B3 variant K326_15Y/GpL16-k0 (antibody, human IgG1, kappa)
# heavy 1: not shown
# heavy 2: not shown
# light: B1 light
# notes: as for B2
# B14: heterodimerized antibody GpH7-A5/GpH7-B3 variant S298_03V/GpL16-k0 (antibody, human IgG1, kappa)
# heavy 1: not shown
# heavy 2: not shown
# light: B1 light
# notes: as for B1
# B15: GpH7-A5/GpH7-B3 variant K326_19Q/GpL16-k0 (antibody, human IgG1, kappa)
# heavy 1: not shown
# heavy 2: not shown
# light: B1 light
# notes: as for B2
# B16: heterodimerized antibody GpH7-A5/GpH7-B3 variant Q295_16H/GpL16-k0 (antibody, human IgG1, kappa)
# heavy 1: not shown
# heavy 2: not shown
# light: B1 light
# notes: as for B1
# B17: heterodimerized antibody GpH7-A5/GpH7-B3 variant Q295_20W/GpL16-k0 (antibody, human IgG1, kappa)
# heavy 1: not shown
# heavy 2: not shown
# light: B1 light
# notes: as for B1
# B18: heterodimerized antibody GpH7-A5/GpH7-B3 variant S298_01G/GpL16-k0 (antibody, human IgG1, kappa)
# heavy 1: not shown
# heavy 2: not shown
# light: B1 light
# notes: as for B1
# B19: GpH7-A5/GpH7-B3 variant N325_03V/GpL16-k0 (antibody, human IgG1, kappa)
# heavy 1: not shown
# heavy 2: not shown
# light: B1 light
# notes: as for B2
# B20: heterodimerized antibody GpH7-A5/GpH7-B3 variant S298_05P/GpL16-k0 (antibody, human IgG1, kappa)
# heavy 1: not shown
# heavy 2: not shown
# light: B1 light
# notes: as for B1
# B21: GpH7-A5/GpH7-B3 variant N325_02A/GpL16-k0 (antibody, human IgG1, kappa)
# heavy 1: not shown
# heavy 2: not shown
# light: B1 light
# notes: as for B2
# B22: GpH7-A5/GpH7-B3 variant N325_09D/GpL16-k0 (antibody, human IgG1, kappa)
# heavy 1: not shown
# heavy 2: not shown
# light: B1 light
# notes: as for B2
# B23: GpH7-A5/GpH7-B3 variant N325_08L/GpL16-k0 (antibody, human IgG1, kappa)
# heavy 1: not shown
# heavy 2: not shown
# light: B1 light
# notes: as for B2
# B24: GpH7-A5/GpH7-B3 variant N325_06M/GpL16-k0 (antibody, human IgG1, kappa)
# heavy 1: not shown
# heavy 2: not shown
# light: B1 light
# notes: as for B2
# B25: heterodimerized antibody GpH7-A5/GpH7-B3 variant S298_07I/GpL16-k0 (antibody, human IgG1, kappa)
# heavy 1: not shown
# heavy 2: not shown
# light: B1 light
# notes: as for B1
# B26: heterodimerized antibody GpH7-A5/GpH7-B3 variant S298_04F/GpL16-k0 (antibody, human IgG1, kappa)
# heavy 1: not shown
# heavy 2: not shown
# light: B1 light
# notes: as for B1
# B27: GpH7-A5/GpH7-B3 variant N325_05P/GpL16-k0 (antibody, human IgG1, kappa)
# heavy 1: not shown
# heavy 2: not shown
# light: B1 light
# notes: as for B2
# Experiments:
# [1] = target: T4, FcγRIa extracellular domain with C-terminal His tag (human, UniProt P12314 16-292); test: SPR Biacore, relative binding amount
# T4 construct: extracellular domain; Soluble receptor expressed in FreeStyle293 cells and used as analyte in Biacore; also called FcgRI; 1a; not shown: His tag at the C terminus
# [2] = target: T1, FcγRIIb extracellular domain with …; test: SPR Biacore, relative binding amount
# [3] = target: T4, FcγRIa extracellular domain with …; test: SPR Biacore; relative binding to FcγRIa divided by that to FcγRIIb
# [4] = target: T2, FcγRIIa H; test: SPR (Biacore); He/Con_2aH divided by He/Con_2b (FcγRIIb) of the same antibody
# [5] = target: T2, FcγRIIa H; test: SPR (Biacore), captured antibody, FcγR analyte; relative to GpH7-A5/GpH7-B3/GpL16-k0 = 100
# Protocol: (§1) The heterodimerized antibodies He Abs in which one of the H chains was introduced with an alteration were assayed for their binding activities to each activating FcγR and inhibitory FcγR according to the method described in Example 4. […] The activating FcγRs in FIGS. 26, 27, 28, and 29 are FcγRIa, FcγRIIa (R), FcγRIIa (H), and FcγRIIIa, respectively.
# (§2) Analysis of interaction between objective antibody and the FcγR was carried out using Biacore T100 (GE Healthcare). HBS-EP+ (GE Healthcare) was used as the running buffer, and the measurement temperature was set to 25° C. Chips produced by immobilizing the antigen peptide by the amine coupling method to a Series S Sencor Chip CM5 (GE Healthcare), or alternatively, chips produced by allowing preliminarily biotinylated antigen peptides to interact with and immobilize onto a Series S Sensor Chip SA (certified) (GE Healthcare) were used. Antibodies of interest were captured onto an antigen peptide-immobilized chip, and allowed to interact to each FcγR diluted with running buffer. To regenerate and repeatedly use the chip, the antibodies captured on the chip were washed off by reacting 10 mM glycine-HCl, pH 1.5.
# [6] = target: T3, FcγRIIb; test: as above
# Protocol: as §1, §2
# T4 sequence (P12314 16-292): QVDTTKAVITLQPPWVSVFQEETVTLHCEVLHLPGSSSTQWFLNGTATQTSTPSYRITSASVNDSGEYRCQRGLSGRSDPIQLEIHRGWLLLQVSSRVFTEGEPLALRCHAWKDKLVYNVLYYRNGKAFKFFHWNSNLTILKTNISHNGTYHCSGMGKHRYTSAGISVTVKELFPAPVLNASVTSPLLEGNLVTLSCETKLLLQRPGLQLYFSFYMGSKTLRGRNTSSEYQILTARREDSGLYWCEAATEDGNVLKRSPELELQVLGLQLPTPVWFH
Binder,He/Con_1a [1],He/Con_2b [2],Ia/IIb He_1a/2b [3],He_2aH/2b [4] [ratio],He/Con_2aH [5],He/Con_2b [6]
B1,103 % of GpH7-A5/GpH7-B3/GpL16-k0 (=100),79.3 % of GpH7-A5/GpH7-B3/GpL16-k0 (=100),1.29 ratio of He/Con_1a to He/Con_2b,–,–,–
B2,–,–,–,0.23,33.4 relative (control = 100),143 relative (control = 100)
B3,103 % of GpH7-A5/GpH7-B3/GpL16-k0 (=100),82 % of GpH7-A5/GpH7-B3/GpL16-k0 (=100),1.26 ratio of He/Con_1a to He/Con_2b,–,–,–
B4,–,–,–,0.77,114 relative (control = 100),150 relative (control = 100)
B5,–,–,–,0.56,83.3 relative (control = 100),148 relative (control = 100)
B6,102 % of GpH7-A5/GpH7-B3/GpL16-k0 (=100),64.9 % of GpH7-A5/GpH7-B3/GpL16-k0 (=100),1.58 ratio of He/Con_1a to He/Con_2b,–,–,–
B7,107 % of GpH7-A5/GpH7-B3/GpL16-k0 (=100),73.4 % of GpH7-A5/GpH7-B3/GpL16-k0 (=100),1.45 ratio of He/Con_1a to He/Con_2b,–,–,–
B8,104 % of GpH7-A5/GpH7-B3/GpL16-k0 (=100),79.3 % of GpH7-A5/GpH7-B3/GpL16-k0 (=100),1.31 ratio of He/Con_1a to He/Con_2b,–,–,–
B9,–,–,–,0.51,102 relative (control = 100),200 relative (control = 100)
B10,–,–,–,0.55,52.5 relative (control = 100),95.9 relative (control = 100)
B11,–,–,–,0.57,110 relative (control = 100),193 relative (control = 100)
B12,–,–,–,0.22,38.1 relative (control = 100),171 relative (control = 100)
B13,–,–,–,0.62,98.3 relative (control = 100),159 relative (control = 100)
B14,110 % of GpH7-A5/GpH7-B3/GpL16-k0 (=100),64.5 % of GpH7-A5/GpH7-B3/GpL16-k0 (=100),1.7 ratio of He/Con_1a to He/Con_2b,–,–,–
B15,–,–,–,0.73,101 relative (control = 100),139 relative (control = 100)
B16,102 % of GpH7-A5/GpH7-B3/GpL16-k0 (=100),62.7 % of GpH7-A5/GpH7-B3/GpL16-k0 (=100),1.64 ratio of He/Con_1a to He/Con_2b,–,–,–
B17,93.7 % of GpH7-A5/GpH7-B3/GpL16-k0 (=100),44.4 % of GpH7-A5/GpH7-B3/GpL16-k0 (=100),2.11 ratio of He/Con_1a to He/Con_2b,–,–,–
B18,104 % of GpH7-A5/GpH7-B3/GpL16-k0 (=100),80.1 % of GpH7-A5/GpH7-B3/GpL16-k0 (=100),1.29 ratio of He/Con_1a to He/Con_2b,–,–,–
B19,–,–,–,0.41,45.2 relative (control = 100),111 relative (control = 100)
B20,91.6 % of GpH7-A5/GpH7-B3/GpL16-k0 (=100),11.9 % of GpH7-A5/GpH7-B3/GpL16-k0 (=100),7.7 ratio of He/Con_1a to He/Con_2b,–,–,–
B21,–,–,–,0.74,47.6 relative (control = 100),64.4 relative (control = 100)
B22,–,–,–,0.43,53.1 relative (control = 100),124 relative (control = 100)
B23,–,–,–,0.26,52 relative (control = 100),197 relative (control = 100)
B24,–,–,–,0.22,48.2 relative (control = 100),217 relative (control = 100)
B25,107 % of GpH7-A5/GpH7-B3/GpL16-k0 (=100),70.6 % of GpH7-A5/GpH7-B3/GpL16-k0 (=100),1.52 ratio of He/Con_1a to He/Con_2b,–,–,–
B26,109 % of GpH7-A5/GpH7-B3/GpL16-k0 (=100),65.4 % of GpH7-A5/GpH7-B3/GpL16-k0 (=100),1.67 ratio of He/Con_1a to He/Con_2b,–,–,–
B27,–,–,–,0.8,20.7 relative (control = 100),26 relative (control = 100)
